Experimental data as given in patent publication US20220047716A1, “COMBINATION THERAPIES WITH ANTI-FOLATE RECEPTOR ANTIBODY CONJUGATES” (SUTRO BIOPHARMA, INC., priority 2018, published 2022).

Target: human folate receptor alpha (hFolRα) on cells (human) (UniProt P15328)
Test: cell-based or functional assay

Sequence of human folate receptor alpha (hFolRα) on cells (human) (P15328 25-234 limits assumed): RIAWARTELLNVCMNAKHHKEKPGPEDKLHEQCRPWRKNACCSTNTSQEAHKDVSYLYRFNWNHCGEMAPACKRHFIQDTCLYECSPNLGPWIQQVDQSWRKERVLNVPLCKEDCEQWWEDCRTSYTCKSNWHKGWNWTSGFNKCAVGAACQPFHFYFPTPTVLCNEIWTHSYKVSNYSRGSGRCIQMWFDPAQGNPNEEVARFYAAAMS

## ADC Molecule 21 (IMGN853 surrogate, Mov19-sulfo-SPDB-DM4) (antibody)
  fold shift of cell killing EC50 on Igrov1 cells on addition of naked antibody: 3 fold
